Earlier results as cited in patent US20230313258A1, “CROSS-LINIKING METHODS” (The University of Bath, priority 2020, published 2023).

Target: dimeric AP-1 transcription factor (Homo sapiens, UniProt P05412)
Details: previously identified (Mason et al. 2006)

Sequence of dimeric AP-1 transcription factor (P05412 whole entry): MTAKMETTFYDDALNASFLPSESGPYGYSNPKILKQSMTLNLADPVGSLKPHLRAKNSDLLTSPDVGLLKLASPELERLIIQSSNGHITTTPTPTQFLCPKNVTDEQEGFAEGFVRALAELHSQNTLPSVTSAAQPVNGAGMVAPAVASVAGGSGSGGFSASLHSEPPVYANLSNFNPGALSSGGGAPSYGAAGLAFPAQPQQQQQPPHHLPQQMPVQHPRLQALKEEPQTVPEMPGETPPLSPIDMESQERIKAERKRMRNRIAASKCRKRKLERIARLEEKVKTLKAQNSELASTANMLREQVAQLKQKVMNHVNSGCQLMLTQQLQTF

FosW: parent peptide, SEQ ID NO: 1, ASLDELQAEIEQLEERNYALRKEIEDLQKQLEKLGAP; previously identified inhibitor of AP-1
ability to dissociate AP-1 from its DNA binding site: able to dissociate the dimeric AP-1 transcription factor from its DNA binding site
